# Patent publication US20240287172A1 (SCIRHOM, published 2024)
# Molecular target: T1, hiR2-FL-G587N-T7 (human, UniProt Q6PJF5 1-856)
# T1 sequence: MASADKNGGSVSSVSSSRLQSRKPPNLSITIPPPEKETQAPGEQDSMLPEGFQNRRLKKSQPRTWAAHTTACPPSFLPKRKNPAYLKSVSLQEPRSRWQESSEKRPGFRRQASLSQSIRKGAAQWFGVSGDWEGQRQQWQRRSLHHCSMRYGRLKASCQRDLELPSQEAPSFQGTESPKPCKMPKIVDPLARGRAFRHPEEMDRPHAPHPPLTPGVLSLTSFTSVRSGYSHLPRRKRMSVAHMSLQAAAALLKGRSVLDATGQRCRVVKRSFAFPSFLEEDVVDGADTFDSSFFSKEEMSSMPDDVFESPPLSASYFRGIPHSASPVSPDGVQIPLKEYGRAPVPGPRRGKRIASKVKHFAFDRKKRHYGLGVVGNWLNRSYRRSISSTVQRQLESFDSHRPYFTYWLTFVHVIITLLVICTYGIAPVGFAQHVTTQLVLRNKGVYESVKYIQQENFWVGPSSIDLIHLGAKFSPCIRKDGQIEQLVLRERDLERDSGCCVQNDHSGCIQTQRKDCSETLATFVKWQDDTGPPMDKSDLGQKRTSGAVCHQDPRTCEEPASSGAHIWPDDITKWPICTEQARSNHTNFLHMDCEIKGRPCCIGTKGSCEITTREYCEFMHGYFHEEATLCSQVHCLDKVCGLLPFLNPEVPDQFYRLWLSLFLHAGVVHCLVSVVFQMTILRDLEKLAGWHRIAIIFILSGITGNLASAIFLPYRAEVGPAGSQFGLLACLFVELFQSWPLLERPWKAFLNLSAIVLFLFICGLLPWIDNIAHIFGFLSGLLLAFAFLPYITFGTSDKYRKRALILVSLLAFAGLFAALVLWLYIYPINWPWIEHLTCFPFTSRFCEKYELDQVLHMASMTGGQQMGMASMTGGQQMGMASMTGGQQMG
# Assay: FACS, MEF-DKO cells, 3 µg/ml
# From the text: In brief, immortalized MEF-DKO hiR2-FL-G563D-T7, MEF-DKO hiR2-FL-A564P-T7, MEF-DKO hiR2-FL-1566E-T7, MEF-DKO hiR2-FL-D569E-T7, MEF-DKO hiR2-FL-E579K-T7, MEF-DKO hiR2-FL-Q580N-T7, MEF-DKO hiR2-FL-A581S-T7, MEF-DKO hiR2-FL-R582A-T7, MEF-DKO hiR2-FL-S583G-T7, MEF-DKO hiR2-FL-G587N-T7, MEF-DKO hiR2-FL-F588H-T7, MEF-DKO hiR2-FL-L589P-T7, MEF-DKO hiR2-FL-E594V-T7, MEF-DKO hiR2-FL-K596T-T7, MEF-DKO hiR2-FL-S607R-T7, MEF-DKO hiR2-FL-T612S-T7, MEF-DKO hiR2-FL-E617D-T7, MEF-DKO hiR2-FL-H620R-T7, MEF-DKO hiR2-FL-L636M-T7, MEF-DKO hiR2-FL-K638D-T7, MEF-DKO hiR2-FL-1771F-T7, MEF-DKO hiR2-FL-1825V-T7, MEF-DKO hiR2-FL-1828V-T7, MEF-DKO hiR2-FL-N829R-T7, MEF-DKO hiR2-FL-W830C-T7, MEF-DKO hiR2-FL-P831E-T7, MEF-DKO hiR2-FL-I833C-T7, MEF-DKO hiR2-FL-H835F-T7, MEF-DKO hiR2-FL-F8391-T7, MEF-DKO hiR2-FL-S843D-T7, MEF-DKO hiR2-FL-Q853A-T7, MEF-DKO hiR2-FL-V854Q-T7 and MEF-DKO hiR2-FL-R844K-T7 cells were harvested with 10 mM EDTA in PBS, washed and resuspended in FACS buffer (PBS, 3% FBS, 0.05% sodium azide), and seeded in Nunc U-bottom 96-well plates (Thermo Fisher Scientific, USA) at approximately 1×10⁵ cells per well. To pellet cells and remove supernatants, the plates were centrifuged at 1,500 rpm and 4° C. for 3 minutes. For primary staining, cells were resuspended in 100 μl per well of either FACS buffer alone (controls) or the purified antibodies 3, 5, 16, 22, 34, 42, 43, 44, 48, and 50 of the invention at 3 μg/ml in FACS buffer and incubated on ice for 1 hour. Afterwards, plates were centrifuged at 1,500 rpm and 4° C. for 3 minutes and washed twice with 200 μl per well of FACS buffer. For secondary staining, cells were spun down and resuspended in 100 μl per well of PE-conjugated goat anti-mouse IgG F(ab′)2 detection fragment (Dianova, Germany) diluted 1:100 in FACS buffer. Protected from light, the cell suspensions were incubated on ice for 1 hour. Plates were then centrifuged at 1,500 rpm and 4° C. for 3 minutes and washed three times with 200 μl per well of FACS buffer. Finally, cells were resuspended in 150 μl per well of FACS buffer and analyzed using a BD Accuri™ C6 Plus flow cytometer (Becton Dickinson, Germany).
row,Binder,loss of binding vs wild type
1,"antibody 43 (antibody, V domains shown, mouse IgG, kappa light chain; also called clone #43; purified antibody 43) VH: QVALKESGPGILQPSQTLSLTCSFSGFSLSTFGMGVGWIRQSSGKGLEWLANIWWDDDKYYNPALKSRLTISKDASKNQAFLKIANVDTADTATYYCARIGNYGSNYWYFDVWGTGTTVTVSS VL: QIVLTQSPAIMSASPGERVTMTCSANSRISYMYWYQQKPGSSPRLLIYDTSNLASGVPVRFSGSGSGTSYSLTISRMEAEDAATYNCQQWSSYPLTFGAGTKLELK",≥ 30%
2,"antibody 48 (antibody, V domains shown, mouse IgG, kappa light chain; also called clone #48; purified antibody 48) VH: QVQLQQSGTELVRPGTSVKVSCKASGYAFTNYLIEWVKQRPGQGLEWIGVINPGSGFTKYNEKFKGKATLTADKSSSTVYMHLSSLTSEDSAVYFCARGLYRAMDYWGQGTSVTVSS VL: DIQMTQSPASQSASLGESVTITCLASQTIATWLAWYQQKPGKSPQLLIYGATTLADGVPSRFSGGGSGTKFSFKISSLQAEDFVSYYCQQLYSTPYTFGGGTKLEIK",≥ 60%
3,"antibody 50 (antibody, V domains shown, mouse IgG, kappa light chain; also called clone #50; purified antibody 50) VH: QVQLQQSGAELVRPGASVKVSCKASGYAFSNYLIEWVKQRPGQGLEWIGVINPGSGFTKYNEKFKGKATLTADKSSSTAYMQLSSLTSEDSAVYFCARGLYRAMDYWGQGTSVTVSS VL: DIQMTQSPASQSASLGESVTITCLASQTIGTWLAWYQQKPGKSPQLLIYAAASLADGVPSRFSGGGSGTKFSFKISSLQAEDFVNYYCQQIYSTPYTFGGGTKLEIK",≥ 60%
